The record followed here is paper PMC11199706.

For test [1], the target named is NOPLight (human (NOPR part)). Put plainly: fluorescence response of the sensor on cells (confocal imaging); sensor on AAV-transduced cultured rat cortical neurons in HBSS, 1 µM N/OFQ, ΔF/F0 of membrane pixels.
In test [2] the target is NOPLight (human (NOPR part)). Put plainly: fluorescence response of the sensor on cells (confocal imaging); sensor on transfected HEK293T cells in HBSS, ligand pipetted in at one concentration (1 µM where stated), ΔF/F0 of membrane pixels.
For test [3], the target named is NOPLight (human (NOPR part)). Nature of the test: fluorescence response of the sensor in acute brain slices (off kinetics); NOPLight expressed in mouse brain (AAV), slices at 31 °C in aCSF, 50 nL of N/OFQ at 10, 50 or 500 nM puffed onto the slice.
Test [4] concerns the target NOPLight (human (NOPR part)). Put plainly: other fluorescence titration; apparent; NOPLight on transfected HEK293T cells in HBSS, N/OFQ applied manually during confocal imaging (20x), normalised ΔF/F0 fitted with a three-parameter Hill equation.
For test [5], the target named is NOPLight (human (NOPR part)). Nature of the test: fluorescence response of the sensor on cells (wash-off kinetics); NOPLight on HEK293T cells on coverslips, 37 °C HBSS, 500 nM N/OFQ bath-applied, perfusion turned on after 30 s, mono-exponential decay fit.
Test [6] addresses NOPLight (human (NOPR part)). Nature of the test: fluorescence response of the sensor on cells (wash-off kinetics); NOPLight on HEK293T cells under constant perfusion with 37 °C HBSS, about 50 nL of 100 µM N/OFQ puffed onto the cells, mono-exponential decay fit.
For test [7], the target named is NOPLight (human (NOPR part)). Nature of the test: fluorescence response of the sensor on cells (line-scan confocal imaging, kinetics); NOPLight on HEK293T cells, 37 °C, N/OFQ applied in bolus with Red-Dextran dye, line scan at 800 Hz, mono-exponential association fit.
Test [8] has as its target NOPLight (human (NOPR part)). Nature of the test: fluorescence response of the sensor in acute brain slices; NOPLight expressed in the mouse arcuate nucleus (AAV), coronal slices perfused with aCSF pH 7.2, increasing N/OFQ (5 nM to 10 µM) bath-applied for 10 min each.
Test [9] addresses NOPLight (human (NOPR part)). Put plainly: other fluorescence titration; apparent; NOPLight on AAV-transduced cultured rat cortical neurons in HBSS, N/OFQ applied manually during confocal imaging (20x), normalised ΔF/F0 fitted with a three-parameter Hill equation.

In turn, FGGFTGARKSARKLANQ [nociceptin/orphanin-FQ peptide] yielded a ΔF/F0 upon N/OFQ (1 µM) in test [1] of 378%. The molecule also returned a ΔF/F0 upon N/OFQ (1 µM) in [2] of 388%. In [3], this molecule displayed a τoff at 10 nM N/OFQ of 30.9 s, a τoff at 50 nM N/OFQ of 41.1 s and a τoff at 500 nM N/OFQ of 53.1 s. Besides, the EC50 in test [4] was 0.0286 µM. The molecule further displayed a τoff (bath application) in test [5] of 57.1 s. The same molecule yielded a τoff (localized puff application) in test [6] of 29.9 s. Further, the τON (time constant of signal activation) in test [7] is 595 ms. In test [8], this molecule came in with a ΔF/F0 at 10 nM N/OFQ of 1.9% and a ΔF/F0 at 10 µM N/OFQ of 73%. In addition, in test [9], the EC50 is 0.0428 µM.

One may read the EC50 as the concentration giving half of the maximal effect.
